Series [1] deals with T1, GST-APE1 WT (Xenopus laevis, UniProt Q6IP62 1-316).
T1 sequence: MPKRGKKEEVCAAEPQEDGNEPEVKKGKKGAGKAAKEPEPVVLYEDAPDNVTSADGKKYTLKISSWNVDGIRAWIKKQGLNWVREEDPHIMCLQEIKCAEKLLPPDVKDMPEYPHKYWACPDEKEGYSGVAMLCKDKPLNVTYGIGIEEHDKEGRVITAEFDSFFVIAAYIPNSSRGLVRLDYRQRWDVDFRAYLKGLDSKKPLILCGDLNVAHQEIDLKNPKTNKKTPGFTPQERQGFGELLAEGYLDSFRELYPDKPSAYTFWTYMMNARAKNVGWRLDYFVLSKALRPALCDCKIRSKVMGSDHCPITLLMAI
The series is described as follows: EMSA.

In another series the target is T2, GST-APE1 F264Y (Xenopus laevis, UniProt Q6IP62 1-316, F264Y).
T2 sequence: T1 sequence with F264Y
The series is described as follows: EMSA.

The next series has as its target T3, GST-APE1 CA (Xenopus laevis, UniProt Q6IP62 1-316, C92A;C98A).
T3 sequence: T1 sequence with C92A, C98A
Nature of the series: EMSA. (Mobility shift assays separate free from complexed probe on a gel.)

The next series concerns the target T4, GST-APE1 F264L (Xenopus laevis, UniProt Q6IP62 1-316, F264L).
T4 sequence: T1 sequence with F264L
Nature of the series: EMSA.

The target in another series is T5, GST-APE1 DA (Xenopus laevis, UniProt Q6IP62 1-316, D306A).
T5 sequence: T1 sequence with D306A
The series is described as follows: EMSA.

The next series deals with T6, Myc-APE2 (UniProt Q6DDT4 1-517).
T6 sequence: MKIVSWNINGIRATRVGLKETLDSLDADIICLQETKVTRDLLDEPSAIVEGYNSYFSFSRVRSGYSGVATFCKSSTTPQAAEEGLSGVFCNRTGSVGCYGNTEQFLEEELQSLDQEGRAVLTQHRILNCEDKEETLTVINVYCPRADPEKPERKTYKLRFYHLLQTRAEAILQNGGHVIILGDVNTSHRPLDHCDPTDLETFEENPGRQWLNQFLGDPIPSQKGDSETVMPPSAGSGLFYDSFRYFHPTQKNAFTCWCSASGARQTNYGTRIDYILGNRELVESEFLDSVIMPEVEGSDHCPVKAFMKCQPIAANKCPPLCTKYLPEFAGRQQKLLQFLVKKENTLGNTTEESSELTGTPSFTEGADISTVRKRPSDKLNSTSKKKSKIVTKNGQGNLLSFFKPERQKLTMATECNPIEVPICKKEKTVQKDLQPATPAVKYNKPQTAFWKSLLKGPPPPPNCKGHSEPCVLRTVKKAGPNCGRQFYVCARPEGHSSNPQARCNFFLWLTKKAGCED
Nature of the series: pull-down.

Series [2] deals with T1, GST-APE1 WT. The series is described as follows: EMSA. The source holds these as a separate data set.

Substitutions are numbered along the chain they refer to. Where two headings read alike, the source gives them in different places.

B1: dsDNA-SSB (dsDNA)
DNA 1: TCGGTACCCGGGGATCCTCTAGAGTCGACC
DNA 2: TGCAGGCATGCAAGCTTGGCGTAATCATGGTCATAGCTGT
DNA 3: ACAGCTATGACCATGATTACGCCAAGCTTGCATGCCTGCAGGTCGACTCTAGAGGATCCCCGGGTACCGA
modifications: nick between nt 30 and 31 of S1 (Nt.BstNBI, …^); CIP-treated
In the case of B1, the binding result in the series with GST-APE1 WT [1] is reported as “binds”; in the series with GST-APE1 F264Y, “no binding”; with GST-APE1 CA it was “no binding”; with GST-APE1 F264L, “no binding”; with GST-APE1 DA, “no binding”.

B2: biotin-dsDNA (dsDNA)
DNA 1: TCGGTACCCGGGGATCCTCTAGAGTCGACCTGCAGGCATGCAAGCTTGGCGTAATCATGGTCATAGCTGT
DNA 2: B1 DNA 3
For the molecule B2, the binding result in the series with Myc-APE2 was “no binding”.

B3: dsDNA (70 bp) (dsDNA)
DNA 1: B2 DNA 1
DNA 2: B1 DNA 3
Consider B3, for which the binding result with GST-APE1 WT [2] is recorded as “no binding”.

B4: biotin-dsDNA-SSB (dsDNA)
DNA 1: B1 DNA 1
DNA 2: B1 DNA 2
DNA 3: B1 DNA 3
modifications: nick by Nt.BstNBI; CIP-treated
As to B4, in the series with Myc-APE2, the binding result is reported as “binds”.

Values taken from paper PMC7038996.
